Measured values taken from patent US20200397914A1.

Legend:
[1] = target: human folate receptor 1 (folate receptor alpha, FRα) on T47D cells (human) (UniProt P15328); assay: flow cytometry on T47D cells, FITC anti-human IgG Fcγ detection; control run with M-sSPDB-127
[2] = target: human folate receptor 1 (folate receptor alpha, FRα) on T47D cells (human) (UniProt P15328); assay: flow cytometry on T47D cells, FITC anti-human IgG Fcγ detection; control run with M-10
[3] = target: human folate receptor 1 (folate receptor alpha, FRα) on T47D cells (human) (UniProt P15328); assay: flow cytometry on T47D cells, FITC anti-human IgG Fcγ detection; control run with M-166
[4] = target: human folate receptor 1 (folate receptor alpha, FRα) on T47D cells (human) (UniProt P15328); assay: flow cytometry on T47D cells, FITC anti-human IgG Fcγ detection; control run with M-sSPDB-30
[5] = target: human folate receptor 1 (folate receptor alpha, FRα) on T47D cells (human) (UniProt P15328); assay: flow cytometry on T47D cells, FITC anti-human IgG Fcγ detection; control run with M-160
[6] = target: human folate receptor 1 (folate receptor alpha, FRα) on T47D cells (human) (UniProt P15328); assay: flow cytometry on T47D cells, FITC anti-human IgG Fcγ detection; control run with M-sSPDB-17
[7] = target: human folate receptor 1 (folate receptor alpha, FRα) on T47D cells (human) (UniProt P15328); assay: flow cytometry on T47D cells, FITC anti-human IgG Fcγ detection; control run with M-sSPDB-87
[8] = target: human folate receptor 1 (folate receptor alpha, FRα) on T47D cells (human) (UniProt P15328); assay: flow cytometry on T47D cells, FITC anti-human IgG Fcγ detection; control run with M-sSPDB-109

Measured: EC50

Chain of human folate receptor 1 (folate receptor alpha, FRα) on T47D cells (human) (P15328 25-234, stated change not applied): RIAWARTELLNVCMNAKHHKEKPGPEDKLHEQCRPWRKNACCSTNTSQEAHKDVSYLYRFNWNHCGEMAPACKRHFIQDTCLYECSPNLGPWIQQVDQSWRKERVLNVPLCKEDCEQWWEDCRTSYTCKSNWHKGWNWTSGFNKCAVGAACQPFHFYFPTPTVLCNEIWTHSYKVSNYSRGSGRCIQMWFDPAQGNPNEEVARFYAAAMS

B1: huMov19 antibody (unconjugated) (antibody, from a related filing, V domains shown)
VH: QVQLVQSGAEVVKPGASVKISCKASGYTFTGYFMNWVKQSPGQSLEWIGRIHPYDGDTFYNQKFQGKATLTVDKSSNTAHMELLSLTSEDFAVYYCTRYDGSRAMDYWGQGTTVTVSS
VL: DIVLTQSPLSLAVSLGQPAIISCKASQSVSFAGTSLMHWYHQKPGQQPRLLIYRASNLEAGVPDRFSGSGSKTDFTLTISPVEAEDAATYYCQQSREYPYTFGGGTKLEIKR
0.3 nM: [2]
0.2 nM: all other assays above
